According to patent US9878005B2, “Method of promoting wound healing with hyodxia-induced mitogenic factor” (THE JOHNS HOPKINS UNIVERSITY, priority 2003, dated 2018):

B1: HIMF: hypoxia-induced mitogenic factor; recombinant C-terminal FLAG-tagged protein of 96 amino acids purified from 293 cell culture medium (protein, UniProt Q9EP95 24-111, looked up)
Resistin-like alpha: DETIEIIVENKVKELLANPANYPSTVTKTLSCTSVKTMNRWASCPAGMTATGCACGFACGSWEIQSGDTCNCLCLLVDWTTARCCQLS
modifications: C-terminal FLAG tag
notes: hypoxia-induced mitogenic factor; recombinant C-terminal FLAG-tagged protein of 96 amino acids purified from 293 cell culture medium

Experiments:
[1] = tested on: rat pulmonary microvascular smooth muscle cells (RPSM); experiment: 3H-thymidine incorporation assay (RPSM proliferation); type: cell-based; settings: for inhibition of serum-induced RPSM proliferation: preliminary experiments
Text: Cell culture and ^3H-thymidine incorporation assays. Rat pulmonary microvascular smooth muscle cells (RPSM) were isolated from male Sprague-Dawley rats (150-200 g) according to a published method2. Briefly, after the pulmonary artery was flushed with phosphate buffered saline (PBS), it was infused with 2% iron oxide suspension in 0.5% agar. The air spaces were filled with agar, the subpleural margins were harvested and partially collagenase digested, and the microvessels were separated magnetically. The identity of RPSM was confirmed by characteristic appearance on phase-contrast microscopy and indirect immunofluorescent antibody staining for smooth muscle-specific isoforms of […] and myosin heavy chain. RPSM were grown in DMEM/F12 medium supplemented with 10% fetal bovine serum (FBS), 2 mM of glutamine, […] of penicillin and 100 μg/ml of streptomycin. Passage 3 to 5 cells were used in the experiments.
The cells were seeded in 24-well plates at 5×10^4/well. After synchronization with serum-free DMEM/F12 (supplemented with 1% Bovine serum albumin (BSA)) for 24 to 48 hours, the cells were treated with the specified agents and 0.1 μCi/well (or 1 μCi/well) of 3H-thymidine in the serum-free DMEM/F12 for 48 hours. After the experimental protocol was completed, the cells were rinsed with PBS twice and incubated in 10% TCA for 30 min. The cells were then washed with PBS two more times and lysed in 250 μl of the lysis buffer (1% SDS, 0.8% NaOH). 3H-thymidine incorporation was measured with a Beckman 6500 scintillation counter in 10 ml of scintillation cocktail.

[2] = tested on: Akt phosphorylation (PI3K/Akt pathway) in RPSM; experiment: Western blot for pAkt and Akt in RPSM; type: cell-based, rat; settings: for inhibition of HIMF-activated Akt phosphorylation: 5 minutes
Procedure: Western blots. The tissue collection and homogenization were performed as described before^1. HIMF was detected with 1:1000 dilution of the anti-HIMF antibody (raised in rabbit using the peptide CENKVKELLANPANYP (SEQ ID NO: 10) conjugated to keyhole limpet hemocyanin as the antigen) followed by 1:3000 dilution of goat anti-rabbit HRP-labeled antibody (BioRad, Hercules, Calif.). The specificity of the anti-HIMF antibody was preliminarily characterized with peptide competition. The peptide used as the immunogen blocked only the HIMF band and had no effect on the nonspecific bands. For phospho-Akt (pAkt) and Akt blots, RPSM were lysed in CelLytic-M (Sigma, St. Louis, Mo.) supplemented with 1 mM PMSF and 1:100 of protease inhibitor cocktail, phosphatase inhibitor cocktail 1 and 2 (Sigma, St. Louis, Mo.). 18 μg of protein in equal volume was subjected to electrophoresis in 4-20% polyacrylamide gel (BioRad, Hercules, Calif.). After transfer to nitrocellulose membrane, the membrane was first probed with anti-pAkt1/2/3(Thr308)(1:500, (Santa Cruz Biotechnology, Santa Cruz, Calif.). Then it was stripped and reprobed with anti-Akt1/2/3 (1:500, (Santa Cruz Biotechnology, Santa Cruz, Calif.).

[3] = tested on: Akt phosphorylation in L2 cells; experiment: Akt phosphorylation in L2 cells (HIMF isolation vs mock isolation); type: cell-based
Procedure: Recombinant HIMF. The C-terminal tagged HIMF was generated by PCR and inserted into pcDNA5/FRT/TO vector using the EcoR V and Xho I restriction sites. The pcDNA5/FRT/TO vector containing the recombinant HIMF gene was then integrated in a Flp recombinase-dependent manner into the genome of the Flp-In™ T-REx™ 293 cell line using the Flp-In™ T-REx™ kit from Invitrogen (Carlsbad, Calif.). Production of recombinant HIMF was induced by tetracycline (1 μg/ml) in the 293 cells maintained in DMEM supplemented with 5% FBS, 2 mM of glutamine, 100 U/ml of penicillin and 100 μg/ml of streptomycin, 100 μg/ml of hygromycin B, and 7.5 μg/ml of blasticidin. HIMF was purified by anti-FLAG M2 antibody agarose (Sigma, St. Louis, Mo.) column chromatography from the 293 cell culture medium with FLAG (0.1 mg/ml) elution. The concentration of the HIMF protein was estimated semi-quantitatively by silver staining after SDS-PAGE using BSA as the standard. […] Therefore, the recombinant protein has 96 amino acids and has a calculated molecular weight of 10,444 Da. […] To exclude the role of possible contaminants such as insulin, a mock isolation control experiment was performed. The medium obtained from the control TREx-293 cell culture was used for the mock isolation. […]

[4] = tested on: vascular tube formation in the Matrigel plug; experiment: Matrigel plug assay in vivo; design: species or system mouse; settings: HIMF 50 nM final, subcutaneous, 7 days; FLAG control 4.3±0.84; n=3, P<0.001
Procedure: Matrigel plug assays: 200 μl of Matrigel mixed with FLAG or HIMF (50 nM final) was injected subcutaneously (n=3 for each group) on the back of mice. Mice were sacrificed after 7 days and the Matrigel plugs collected. Following fixation in 4% paraformaldehyde in PBS ([…], pH 7.4), 10 μm frozen sections were cut and stained either with hemotoxylin and eosin (HE) or von Willebrand factor (vWF). For the detection of vWF, anti-human vWF (1:250 dilution, Dako) and anti-rabbit IgG conjugated with FITC (1:500 dilution) were used. The positive cells were counted and expressed as cell numbers per 20× field.

pulmonary vasculature = experiment: Intact chest mouse experiment; type: in vivo; settings: intravenous injection
Procedure: Intact chest mouse experiment. The animals were ventilated with 95% O2/5% CO2 and 2% isoflurane using a custom-designed, constant-flow mouse ventilator with tidal volume set to 6.7 ml/kg at 140 breaths/min. A femoral artery was cannulated for the measurement of systemic arterial pressure, which was measured with a Viggo-Spectramed transducer attached to a polygraph (Grass Instruments, model 7). Heart rate was determined from the systolic pressure pulses with a tachometer (Grass, model 7P44A), and the left jugular vein was cannulated for the administration of drugs. The animals were strapped in the supine position to a fluoroscopic table, and PAP was measured with a specially designed murine pulmonary arterial catheter attached to a pressure transducer (Schneider/Namic). Mean PAP was derived electronically, and pulmonary arterial wedge pressure was determined by recently described procedures^6. Cardiac output was measured by the thermodilution technique by injection of a known volume (20 μl) of 0.9% NaCl solution at 23° C. into the right atrium and measurement of blood temperature changes in the root of the aorta with a cardiac output computer (Cardiotherm 500, Columbus Instruments, Columbus, Ohio) equipped with a small-animal interface. A thermistor microprobe (Columbus Instruments, Fr-1) was inserted into the right carotid artery and advanced to the aortic arch, where changes in aortic blood temperature were measured.

Row | Molecule | inhibition of serum-induced RPSM proliferation [1] | inhibition of HIMF-activated Akt phosphorylation ([2]; inhibitor 20 μmol/L, HIMF 5×10^−8 mol/L) | inhibition of HIMF-activated Akt phosphorylation ([2]; inhibitor 50 μmol/L, HIMF 5×10^−8 mol/L) | proliferation of RPSM (3H-thymidine incorporation) ([1]; HIMF 3.3×10^−9 to 3.3×10^−8 mol/L) | Akt activation sustained through ([2]; HIMF 5×10^−8 mol/L) [min] | activation of phosphorylation of Akt ([2]; HIMF 5×10^−8 mol/L) | time of peak Akt activation (phosphorylation) ([2]; HIMF 5×10^−8 mol/L) [min] | activation of Akt by the recombinant protein ([2]; preliminary experiments) | Akt phosphorylation in L2 cells ([3]; HIMF isolation, mock isolation had no effect) | activation of Akt by the recombinant protein ([3]; L2 cells, preliminary experiments) | vascular tube formation in the Matrigel plug [4] | pulmonary arterial pressure (PAP) (pulmonary vasculature) | pulmonary vascular resistance (PVR) (pulmonary vasculature) | pulmonary vasoconstrictor potency versus endothelin-1, angiotensin II, or serotonin (molar dose-response curves) (pulmonary vasculature)
1 | O=c1c(-c2ccc(O)cc2)coc2cc(O)cc(O)c12 [Genistein, reference compound] | inhibit | did not inhibit | – | – | – | – | – | – | – | – | – | – | – | –
2 | O=C(Nc1cc(C(=O)Nc2ccc(S(=O)(=O)[O-])cc2S(=O)(=O)[O-])cc(C(=O)Nc2ccc(S(=O)(=O)[O-])cc2S(=O)(=O)[O-])c1)Nc1cc(C(=O)Nc2ccc(S(=O)(=O)[O-])cc2S(=O)(=O)[O-])cc(C(=O)Nc2ccc(S(=O)(=O)[O-])cc2S(=O)(=O)[O-])c1.[Na+].[Na+].[Na+].[Na+].[Na+].[Na+].[Na+].[Na+] [NF449, reference compound] | inhibit | – | did not inhibit | – | – | – | – | – | – | – | – | – | – | –
3 | B1 | – | – | – | dose-dependently increased | ≥ 60 | strongly activated | 5 | activated | stimulated | activated | 17.7±1.37 /×20 field | increased | increased | more potent
